Our source for the binding signal values is patent US20220289795, “EFFICIENT METHOD FOR PREPARING PPR PROTEIN AND USE OF THE SAME” (EditForce, Inc., published 2022).

Holding throughout (test): ELONA; RPB-ELISA
On the technique in general: ELISA stands for enzyme-linked immunosorbent assay.

One series has as its target T1, v3.1_PPR10 (Artificial Sequence).
T1 chain: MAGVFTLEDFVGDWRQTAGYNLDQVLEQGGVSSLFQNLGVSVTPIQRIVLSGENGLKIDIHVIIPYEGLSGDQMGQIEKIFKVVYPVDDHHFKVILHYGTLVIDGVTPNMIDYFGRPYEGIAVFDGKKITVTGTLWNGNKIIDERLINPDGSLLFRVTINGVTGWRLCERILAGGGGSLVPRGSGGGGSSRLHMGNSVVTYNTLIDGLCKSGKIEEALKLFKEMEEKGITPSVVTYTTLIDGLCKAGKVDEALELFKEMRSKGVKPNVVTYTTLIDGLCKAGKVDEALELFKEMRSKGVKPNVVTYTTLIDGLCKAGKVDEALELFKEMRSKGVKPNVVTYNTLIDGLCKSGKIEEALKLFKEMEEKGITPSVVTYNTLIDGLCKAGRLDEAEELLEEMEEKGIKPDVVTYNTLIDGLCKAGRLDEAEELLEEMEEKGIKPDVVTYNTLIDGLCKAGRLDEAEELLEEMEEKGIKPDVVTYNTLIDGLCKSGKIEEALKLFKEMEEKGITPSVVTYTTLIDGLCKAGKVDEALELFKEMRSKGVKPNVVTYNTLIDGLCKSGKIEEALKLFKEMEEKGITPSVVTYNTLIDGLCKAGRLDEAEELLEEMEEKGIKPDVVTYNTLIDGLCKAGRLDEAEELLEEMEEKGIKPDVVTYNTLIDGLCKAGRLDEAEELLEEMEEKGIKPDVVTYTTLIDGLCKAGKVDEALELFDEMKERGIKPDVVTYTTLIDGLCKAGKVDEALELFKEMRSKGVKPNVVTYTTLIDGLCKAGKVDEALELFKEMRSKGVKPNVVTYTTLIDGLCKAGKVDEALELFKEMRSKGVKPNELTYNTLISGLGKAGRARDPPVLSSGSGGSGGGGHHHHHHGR
The settings on record: tags: luciferase fusion; label: 5'-biotin.

The target of a further series is T2, NL_v2_PPR10 (Artificial Sequence).
T2 chain: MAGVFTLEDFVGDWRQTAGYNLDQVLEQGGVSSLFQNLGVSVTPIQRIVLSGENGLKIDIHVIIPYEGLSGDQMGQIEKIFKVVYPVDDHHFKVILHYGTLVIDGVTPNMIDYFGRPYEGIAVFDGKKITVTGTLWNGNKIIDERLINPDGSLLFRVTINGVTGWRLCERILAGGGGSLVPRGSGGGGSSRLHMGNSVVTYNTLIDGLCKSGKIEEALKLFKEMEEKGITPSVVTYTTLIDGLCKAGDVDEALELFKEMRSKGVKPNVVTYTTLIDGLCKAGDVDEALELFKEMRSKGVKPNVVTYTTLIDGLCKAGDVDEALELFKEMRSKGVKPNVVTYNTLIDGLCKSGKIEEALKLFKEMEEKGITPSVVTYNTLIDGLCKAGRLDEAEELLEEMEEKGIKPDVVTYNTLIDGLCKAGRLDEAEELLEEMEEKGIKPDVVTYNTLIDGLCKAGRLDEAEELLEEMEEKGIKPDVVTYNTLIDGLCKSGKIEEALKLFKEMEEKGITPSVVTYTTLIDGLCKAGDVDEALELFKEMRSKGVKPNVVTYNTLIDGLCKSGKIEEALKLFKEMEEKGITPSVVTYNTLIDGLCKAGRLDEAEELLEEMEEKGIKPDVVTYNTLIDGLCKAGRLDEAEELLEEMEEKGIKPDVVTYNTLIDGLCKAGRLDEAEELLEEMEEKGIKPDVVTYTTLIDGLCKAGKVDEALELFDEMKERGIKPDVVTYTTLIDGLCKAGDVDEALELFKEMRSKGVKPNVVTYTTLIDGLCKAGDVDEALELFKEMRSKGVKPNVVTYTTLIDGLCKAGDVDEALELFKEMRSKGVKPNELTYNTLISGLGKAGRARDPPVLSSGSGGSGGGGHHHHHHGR
The settings on record: tags: N-term luciferase, C-term 6xHis; label: 5'-biotin.

For another series, the target named is T3, v3.1_PPR11 (Artificial Sequence).
T3 chain: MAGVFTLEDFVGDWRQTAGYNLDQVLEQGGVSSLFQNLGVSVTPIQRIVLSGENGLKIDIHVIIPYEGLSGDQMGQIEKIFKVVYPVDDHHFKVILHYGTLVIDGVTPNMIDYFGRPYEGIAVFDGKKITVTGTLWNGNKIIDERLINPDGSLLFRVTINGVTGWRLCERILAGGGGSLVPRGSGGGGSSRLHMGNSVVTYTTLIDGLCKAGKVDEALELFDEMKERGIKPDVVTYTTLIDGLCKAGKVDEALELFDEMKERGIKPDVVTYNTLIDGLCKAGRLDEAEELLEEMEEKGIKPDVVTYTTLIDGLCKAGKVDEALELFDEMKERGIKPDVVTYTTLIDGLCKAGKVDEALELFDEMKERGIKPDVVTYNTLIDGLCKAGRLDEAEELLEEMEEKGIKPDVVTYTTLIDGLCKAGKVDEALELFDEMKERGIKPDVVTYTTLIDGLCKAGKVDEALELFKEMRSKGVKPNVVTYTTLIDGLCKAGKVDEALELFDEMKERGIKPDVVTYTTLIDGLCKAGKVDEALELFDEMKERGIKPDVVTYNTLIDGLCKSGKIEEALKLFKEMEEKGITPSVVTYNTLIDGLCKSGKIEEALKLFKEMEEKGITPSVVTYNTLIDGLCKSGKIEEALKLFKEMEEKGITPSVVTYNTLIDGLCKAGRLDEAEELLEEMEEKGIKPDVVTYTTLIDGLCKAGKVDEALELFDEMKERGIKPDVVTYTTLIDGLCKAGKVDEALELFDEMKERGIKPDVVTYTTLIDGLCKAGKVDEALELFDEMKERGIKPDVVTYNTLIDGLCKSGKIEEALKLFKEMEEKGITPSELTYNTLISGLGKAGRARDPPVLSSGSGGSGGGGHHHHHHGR
The settings on record: tags: luciferase fusion; label: 5'-biotin.

Another series addresses T4, NL_v2_PPR11 (Artificial Sequence).
T4 chain: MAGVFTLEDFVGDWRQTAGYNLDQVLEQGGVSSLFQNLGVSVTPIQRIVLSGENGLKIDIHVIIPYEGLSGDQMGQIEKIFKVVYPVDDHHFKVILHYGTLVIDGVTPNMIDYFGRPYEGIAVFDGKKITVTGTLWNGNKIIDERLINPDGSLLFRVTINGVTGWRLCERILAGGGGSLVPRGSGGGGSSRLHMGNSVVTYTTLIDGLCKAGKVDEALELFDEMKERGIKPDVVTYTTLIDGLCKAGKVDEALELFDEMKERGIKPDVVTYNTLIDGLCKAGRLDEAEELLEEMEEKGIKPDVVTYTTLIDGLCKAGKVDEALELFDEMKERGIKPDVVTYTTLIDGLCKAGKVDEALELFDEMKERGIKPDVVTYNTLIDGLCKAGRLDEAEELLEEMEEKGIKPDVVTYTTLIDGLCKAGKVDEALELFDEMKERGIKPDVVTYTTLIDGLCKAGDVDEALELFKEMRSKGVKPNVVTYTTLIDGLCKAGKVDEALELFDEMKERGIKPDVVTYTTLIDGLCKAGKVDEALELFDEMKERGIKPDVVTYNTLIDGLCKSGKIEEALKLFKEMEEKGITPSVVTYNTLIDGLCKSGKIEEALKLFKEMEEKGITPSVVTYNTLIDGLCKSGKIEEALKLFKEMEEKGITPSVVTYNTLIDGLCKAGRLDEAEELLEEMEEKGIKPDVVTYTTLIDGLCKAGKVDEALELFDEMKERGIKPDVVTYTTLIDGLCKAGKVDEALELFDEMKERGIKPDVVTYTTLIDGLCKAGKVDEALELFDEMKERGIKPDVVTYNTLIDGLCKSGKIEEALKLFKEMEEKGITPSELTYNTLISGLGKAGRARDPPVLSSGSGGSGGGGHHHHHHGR
As to conditions: tags: N-term luciferase, C-term 6xHis; label: 5'-biotin.

For a further series, the target named is T5, NL_v2_PPR9 (Artificial Sequence).
T5 chain: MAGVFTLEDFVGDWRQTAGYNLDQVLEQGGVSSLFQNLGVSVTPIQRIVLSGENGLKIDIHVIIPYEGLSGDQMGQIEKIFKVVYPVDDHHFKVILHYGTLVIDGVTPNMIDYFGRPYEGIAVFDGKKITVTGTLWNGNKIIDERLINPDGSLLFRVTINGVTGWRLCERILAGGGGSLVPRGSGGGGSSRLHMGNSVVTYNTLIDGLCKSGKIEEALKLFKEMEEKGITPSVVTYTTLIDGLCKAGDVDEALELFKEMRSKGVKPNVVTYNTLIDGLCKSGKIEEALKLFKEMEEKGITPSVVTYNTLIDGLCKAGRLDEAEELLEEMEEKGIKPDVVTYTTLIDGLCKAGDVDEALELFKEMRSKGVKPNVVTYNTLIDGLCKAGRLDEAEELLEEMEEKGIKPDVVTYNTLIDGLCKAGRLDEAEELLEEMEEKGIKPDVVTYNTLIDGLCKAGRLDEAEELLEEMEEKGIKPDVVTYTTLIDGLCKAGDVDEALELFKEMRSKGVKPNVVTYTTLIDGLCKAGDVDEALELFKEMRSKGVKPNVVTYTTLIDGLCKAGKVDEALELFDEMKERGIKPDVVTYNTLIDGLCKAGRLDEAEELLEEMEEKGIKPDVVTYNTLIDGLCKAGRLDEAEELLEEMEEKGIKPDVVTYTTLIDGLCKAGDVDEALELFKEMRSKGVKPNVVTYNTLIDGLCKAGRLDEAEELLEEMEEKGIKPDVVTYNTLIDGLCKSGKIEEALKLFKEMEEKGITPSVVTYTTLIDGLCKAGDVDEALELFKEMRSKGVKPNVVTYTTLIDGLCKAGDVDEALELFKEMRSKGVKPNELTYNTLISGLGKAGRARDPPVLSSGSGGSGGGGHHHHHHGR
The settings on record: tags: N-term luciferase, C-term 6xHis; label: 5'-biotin.

The target of the next series is T6, v3.1_PPR9 (Artificial Sequence).
T6 chain: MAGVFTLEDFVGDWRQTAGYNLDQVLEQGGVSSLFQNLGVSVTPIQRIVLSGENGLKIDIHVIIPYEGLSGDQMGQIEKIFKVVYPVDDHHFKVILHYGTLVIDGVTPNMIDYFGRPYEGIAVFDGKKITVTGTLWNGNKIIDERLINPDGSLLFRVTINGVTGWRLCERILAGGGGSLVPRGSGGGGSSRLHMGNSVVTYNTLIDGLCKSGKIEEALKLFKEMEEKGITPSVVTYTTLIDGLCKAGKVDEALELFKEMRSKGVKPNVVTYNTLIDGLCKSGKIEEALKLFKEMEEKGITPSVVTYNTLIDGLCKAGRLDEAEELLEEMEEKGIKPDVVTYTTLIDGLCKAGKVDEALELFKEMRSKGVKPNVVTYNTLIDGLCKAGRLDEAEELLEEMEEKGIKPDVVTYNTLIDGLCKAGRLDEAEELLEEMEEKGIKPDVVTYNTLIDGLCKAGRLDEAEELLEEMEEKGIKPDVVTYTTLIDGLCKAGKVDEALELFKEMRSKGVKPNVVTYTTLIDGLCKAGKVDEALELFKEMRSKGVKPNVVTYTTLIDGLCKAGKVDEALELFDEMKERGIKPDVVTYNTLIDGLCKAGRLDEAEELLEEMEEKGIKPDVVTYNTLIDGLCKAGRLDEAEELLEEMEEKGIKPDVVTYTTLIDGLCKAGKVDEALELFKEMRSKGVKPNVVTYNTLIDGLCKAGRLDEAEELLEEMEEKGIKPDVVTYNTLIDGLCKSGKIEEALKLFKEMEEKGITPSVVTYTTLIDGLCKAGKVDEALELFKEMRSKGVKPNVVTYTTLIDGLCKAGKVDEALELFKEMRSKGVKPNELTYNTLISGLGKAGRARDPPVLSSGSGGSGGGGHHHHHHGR
The settings on record: tags: luciferase fusion; label: 5'-biotin.

For the molecule GACAUGCCAAACUUUCACUUUGAAAGACUG (ssRNA) [RNA_10], the binding signal with v3.1_PPR10 was determined as 5.8e+07 luminescence; with NL_v2_PPR10, 7.8e+06 luminescence.
As for GACAUGCGGUGGUGAGGCCCUGGGCGACUG (ssRNA) [RNA_11], the values for the binding signal with v3.1_PPR11 and with NL_v2_PPR11 were 2.6e+07 luminescence and 1.2e+07 luminescence, respectively.
Consider GACAUGCCACUAUUUAAGUUAUCAAGACUG (ssRNA) [RNA_9], for which the binding signal in the series with NL_v2_PPR9 is 4.7e+07 luminescence; in the series with v3.1_PPR9 it was 2.2e+06 luminescence.
